How the values were obtained:
[1] = molecular target: murine RAGE (murine, UniProt Q62151 23-231, limits assumed); experiment: ELISA, apparent Kd
[2] = molecular target: T1, human RAGE extracellular domain (human, UniProt Q15109 23-342); experiment: ELISA, apparent Kd
T1 construct: extracellular domain; Immobilized on ELISA plates; also called WT human RAGE

[3] = molecular target: T2, murine RAGE V-C1 domain (murine, UniProt Q62151 23-231, limits assumed); experiment: ELISA, apparent Kd
T2 construct: domain: V-C1 domain; Used as the immunogen and as the ELISA antigen; also called mVC1; WT mVC1

[4] = molecular target: T3, human RAGE R216A-R218A mutant (human, UniProt Q15109 23-342); experiment: ELISA on immobilized antigen
T3 construct: extracellular domain; Mutant of the human RAGE extracellular domain, immobilized for ELISA
Protocol: As shown in the dashed oval, the epitope of B2 mAb includes R216 and R218. Panel B depicts the binding of B2 mAbs to immobilized WT human RAGE or the R216A-R218A mutant as determined by ELISA. The binding of B2 mAbs to R216A-R218A was reduced by 40-fold.
200 ng of human RAGE extracellular domain or R216A-R218A mutant were immobilized onto 96-well high-binding ELISA plate. Plates were blocked with 5% BSA in PBS and incubated with 0.01 to 10 nM of rabbit B2 mAb for 1 hour at room temperature. Bound B2 mAbs were quantitated with anti-rabbit-HRP (Jackson Immunology) followed by the addition of HRP substrate (Thermo Scientific).

T1 sequence (Q15109 23-342): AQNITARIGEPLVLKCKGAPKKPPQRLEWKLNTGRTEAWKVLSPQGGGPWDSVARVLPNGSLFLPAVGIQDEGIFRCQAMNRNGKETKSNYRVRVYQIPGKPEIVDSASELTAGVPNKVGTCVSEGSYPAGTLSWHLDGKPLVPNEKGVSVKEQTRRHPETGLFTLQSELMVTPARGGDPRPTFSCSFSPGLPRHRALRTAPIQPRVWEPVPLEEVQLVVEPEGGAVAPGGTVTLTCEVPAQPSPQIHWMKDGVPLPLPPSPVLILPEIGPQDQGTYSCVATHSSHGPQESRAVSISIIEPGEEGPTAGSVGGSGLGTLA
Sequence of murine RAGE (Q62151 23-231 limits assumed): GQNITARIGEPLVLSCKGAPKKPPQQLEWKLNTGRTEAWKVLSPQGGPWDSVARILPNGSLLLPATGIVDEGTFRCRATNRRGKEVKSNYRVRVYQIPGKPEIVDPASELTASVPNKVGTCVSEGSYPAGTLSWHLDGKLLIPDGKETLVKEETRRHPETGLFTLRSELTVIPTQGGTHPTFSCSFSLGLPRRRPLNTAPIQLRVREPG
T2 sequence (Q62151 23-231 limits assumed): as above
T3 sequence (Q15109 23-342 R216A/R218A): as the sequence (Q15109 23-342) above, with R194A, R196A counted along it

B1: rabbit B2 mAb (antibody, V domains shown)
VH: QSVKESEGGLFKPTDTLTLTCTVSGFTISSYDMSWVRQAPGKGLEWIGAIDSSGSAHYASWARSRSTITRNTNLNTVTLKMTSLTAADTATYFCWNANIWGPGTLVTVSS
VL: AQVLTQTASPVSAAVGSTVTINCQASQNVYDNNHLSWYQQKRGQPPKLLIYYASALASGVSSRFKGSGSGTQFTLTINDVQCDDAATYYCLGSYDCSADCFAFGGGTEVVV
notes: Rabbit monoclonal antibody from a hybridoma; also called B2 mAbs; rabbit mAb B2
- Kd [1]: 0.03 nM
- Kd [2]: 0.08 nM
- Kd [3]: 0.08 nM
- fold reduction of binding against WT human RAGE [4]: 40 fold

From patent US20220396618A1 (RESEARCH FOUNDATION FOR THE STATE UNIVERSITY OF NEW YORK, published 2022)
